Source: patent US20200017862

Molecular target: WT His-tagged PCNA (recombinant Xenopus PCNA) (UniProt P18248)
Sequence (P18248 whole entry): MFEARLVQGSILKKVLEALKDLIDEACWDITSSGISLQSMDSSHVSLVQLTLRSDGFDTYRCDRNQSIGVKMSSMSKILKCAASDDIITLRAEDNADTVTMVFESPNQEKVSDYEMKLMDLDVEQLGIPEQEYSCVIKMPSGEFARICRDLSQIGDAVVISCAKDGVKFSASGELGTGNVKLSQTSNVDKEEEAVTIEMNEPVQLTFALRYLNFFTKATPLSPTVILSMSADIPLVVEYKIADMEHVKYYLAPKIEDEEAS

Substance | exonuclease activity on FAM-labeled gapped dsDNA, purified proteins in vitro
C470A GST-APE2 (mutant of full GST-APE2) | the gapped dsDNA structure was still resected by C470A APE2 or F486A-Y487A APE2 to some extent similar to WT APE2 with the presence of WT PCNA
F486A-Y487A GST-APE2 (mutant of full GST-APE2) | the gapped dsDNA structure was still resected by C470A APE2 or F486A-Y487A APE2 to some extent similar to WT APE2 with the presence of WT PCNA
